Assay results: paper PMC3903488, “Characterization of a Ginsenoside-Transforming β-glucosidase from Paenibacillus mucilaginosus and Its Application for Enhanced Production of Minor Ginsenoside F2” (PLoS ONE, 2014)

Legend:
purified protein = substrate: O=[N+]([O-])c1ccc(O[C@@H]2O[C@H](CO)[C@@H](O)[C@H](O)[C@H]2O)cc1; assay: purified protein; conditions: 0.1-10.0 mM substrate, standard activity assay 50 mM sodium phosphate pH 7.5, 37 °C
[1] = substrate: CC(C)=CCC[C@](C)(O[C@@H]1O[C@H](CO[C@@H]2O[C@H](CO)[C@@H](O)[C@H](O)[C@H]2O)[C@@H](O)[C@H](O)[C@H]1O)[C@H]1CC[C@]2(C)[C@@H]1[C@H](O)C[C@@H]1[C@@]3(C)CC[C@H](O[C@@H]4O[C@H](CO)[C@@H](O)[C@H](O)[C@H]4O[C@@H]4O[C@H](CO)[C@@H](O)[C@H](O)[C@H]4O)C(C)(C)[C@@H]3CC[C@]12C; assay: initial velocity, non-linear regression; type: biochemical, Paenibacillus mucilaginosus; conditions: 0.2-5.0 mM substrate; assay buffer not given
Excerpt: (§1) initial velocity, non-linear regression on BglPm

[2] = substrate: CC(C)=CCC[C@](C)(O[C@@H]1O[C@H](CO)[C@@H](O)[C@H](O)[C@H]1O)[C@H]1CC[C@]2(C)[C@@H]1[C@H](O)C[C@@H]1[C@@]3(C)CC[C@H](O[C@@H]4O[C@H](CO)[C@@H](O)[C@H](O)[C@H]4O[C@@H]4O[C@H](CO)[C@@H](O)[C@H](O)[C@H]4O)C(C)(C)[C@@H]3CC[C@]12C; assay: initial velocity, non-linear regression; type: biochemical, Paenibacillus mucilaginosus; conditions: 0.2-5.0 mM substrate; assay buffer not given
Excerpt: as §1

B1: BglPm (Paenibacillus mucilaginosus 3016) (protein)
chain: EYIFPQQFMFGSATAAYQVEGNNTNSDFWAEEHAEGSPYQDKSGDAVDHYRLYREDIALMASLGLKAYRFSIEWARIEPAPGQFSLSAIAHYRDVLQACYEHRLTPVVAMHHFSSPQWLMRFGGWGSEEVPERFAKYCEFVFQELGDLIPYVLTFNEVNLPVMLREVFSSIGIIPPVGIDGAAWTAPGWRASAAQLCGTTADRYVTFHMISDEPKIALLMEAHRRARQTIKRLQPNAKVGLSMALSDIQSVPGGEAWAQQKWQQYFEQYLPALEGDDFFGLQNYTREVYGPEGRVTPAADAELTQMKYEYYPEALGQVIRKVAKALTLPIFVTEHGVATDDDERRIEFIRRGLQGVHACLEEGIDVRGYLHWTTFDNFEWNAGYSMRFGLIGVDRTTQERTVKESARYLGRIASTKVL
notes: expressed in E. coli BL21(DE3)
Purified protein
  Km: 3240 ± 390 µM
  Vmax: 10.2 µmol/min/mg
  kcat: 8.13 s⁻¹
  kcat/Km: 2560 M⁻¹ s⁻¹
[1]
  Km: 384 ± 64 µM
  Vmax: 0.369 µmol/min/mg
  kcat: 0.458 ± 0.018 s⁻¹
  kcat/Km: 1230 ± 250 M⁻¹ s⁻¹
[2]
  Km: 352 ± 53 µM
  Vmax: 0.484 µmol/min/mg
  kcat: 0.601 ± 0.066 s⁻¹
  kcat/Km: 1780 ± 460 M⁻¹ s⁻¹
